The results in this text go back to patent US20250321223A1 (KEMIJSKI INSTITUT, published 2025).

Test [1] addresses T1, nLuc:cPPARγ.
T1 construct: Expressed in HEK293T cells from pcDNA3; also called Myc:gsg:nLuc:gs10:cPPARγ; cSplit of PPARγ CISPA sensor
T1 chain: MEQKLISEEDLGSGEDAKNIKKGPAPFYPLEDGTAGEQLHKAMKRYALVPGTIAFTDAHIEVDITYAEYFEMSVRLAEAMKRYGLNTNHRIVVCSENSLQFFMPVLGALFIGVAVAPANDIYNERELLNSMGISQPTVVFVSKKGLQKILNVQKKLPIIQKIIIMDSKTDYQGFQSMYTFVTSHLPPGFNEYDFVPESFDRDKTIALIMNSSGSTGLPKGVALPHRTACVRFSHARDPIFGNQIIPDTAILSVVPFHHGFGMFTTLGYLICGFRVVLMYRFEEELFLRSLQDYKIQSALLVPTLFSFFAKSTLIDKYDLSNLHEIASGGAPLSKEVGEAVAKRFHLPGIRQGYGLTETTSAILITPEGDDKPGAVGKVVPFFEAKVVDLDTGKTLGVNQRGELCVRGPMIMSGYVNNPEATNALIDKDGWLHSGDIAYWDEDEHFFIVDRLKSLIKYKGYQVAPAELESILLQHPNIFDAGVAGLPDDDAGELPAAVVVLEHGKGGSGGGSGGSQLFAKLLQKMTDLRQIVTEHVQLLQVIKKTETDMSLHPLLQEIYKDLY
The experiment in a line: split firefly luciferase complementation in HEK293T cells, ligand dose response (FIG. 2E).
Description: (§1) 50 ng of each plasmid encoding CISPA sensor pair was transiently co-transfected in HEK293T cells which were 24 h post-transfection stimulated with the indicated ligands. […] Replicates represent HEK293T cell cultures, individually transfected with the same mixture of plasmids. The values represent the mean and standard deviation of replicates within two to three independent experiments (n=4). Data was plotted as a standard dose response curve.
(§2) The fusion constructs were simultaneously expressed in the HEK293T cell line. […] Following this dimerization, the split reporter fragments (nLuc and cLuc) are brought into the proximity, leading to their reconstitution and measurable output signal (emitted light). The plasmids encoding for the CISPA sensors based on split LBDs were transiently transfected into the HEK293T cell line. […]
(§3) Two days after transfection, the cells were harvested and lysed with 25 μl of 1× passive lysis buffer (Promega). Firefly luciferase and Renilla luciferase expression were measured using a dual luciferase assay (Promega) and an Orion II microplate reader (Berthold Technologies). […] Relative luciferase activity (RLU) was calculated by normalizing each sample's firefly luciferase activity to the constitutive Renilla luciferase activity determined within the same sample.

Test [2] concerns the target T2, nLuc:cLyn.
T2 construct: Expressed in HEK293T cells from pcDNA3; also called Myc:gsg:nLuc:gs10:cLyn; cSplit of Lyn CISPA sensor
Description: split firefly luciferase complementation in HEK293T cells, dasatinib dose response (FIG. 3A).
Description: (§4) Cell cultures of HEK293T cells were grown at 37° C. and 5% CO₂. For cultivation, DMEM medium with 10% FBS, containing all the necessary nutrients and growth factors was used. When the cell population reached a sufficient density, the cells were transferred to a new flask and/or diluted. For use in experiments, the number of cells was determined by the Countess automated cell counter (Invitrogen). A 96-well microtiter plate, suitable for growing cell cultures, was inoculated with 2*10⁴ cells per well 24 hours prior to transfection. Inoculated plates were incubated at 37° C. and 5% CO₂. […] Twelve hours after transfection, the cells were stimulated by removing the media and replacing it with media containing selected ligands. Cells were stimulated for 24 hours.
as §3
The plasmids encoding for designed CISPA sensor were transiently co-transfected into HEK293T cell line. […]

For test [3], the target named is T3, nLuc:cTRβ.
T3 construct: also called Myc:gsg:nLuc:gs10:cTRβ; cSplit of TRβ CISPA sensor
T3 chain: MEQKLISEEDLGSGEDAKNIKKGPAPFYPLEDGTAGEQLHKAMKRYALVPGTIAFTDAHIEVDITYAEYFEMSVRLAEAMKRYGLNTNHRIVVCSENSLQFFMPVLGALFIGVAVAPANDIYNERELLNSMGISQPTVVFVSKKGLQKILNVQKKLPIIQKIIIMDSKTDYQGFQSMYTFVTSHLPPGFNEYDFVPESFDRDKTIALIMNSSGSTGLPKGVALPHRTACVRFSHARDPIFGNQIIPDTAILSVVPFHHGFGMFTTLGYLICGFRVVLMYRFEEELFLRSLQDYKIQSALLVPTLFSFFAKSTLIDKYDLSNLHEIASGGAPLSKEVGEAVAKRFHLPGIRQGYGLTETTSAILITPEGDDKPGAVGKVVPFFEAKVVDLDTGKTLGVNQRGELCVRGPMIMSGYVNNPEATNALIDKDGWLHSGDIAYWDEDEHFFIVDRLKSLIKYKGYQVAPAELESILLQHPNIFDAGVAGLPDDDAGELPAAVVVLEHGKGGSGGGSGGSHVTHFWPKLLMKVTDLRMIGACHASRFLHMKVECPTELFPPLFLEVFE
The experiment in a line: split firefly luciferase complementation in HEK293T cells, ligand dose response (FIG. 2D).

For test [4], the target named is T4, nLuc:cERβ.
T4 construct: Expressed in HEK293T cells from pcDNA3; also called Myc:gsg:nLuc:gs10:cERβ; cSplit of ERβ CISPA sensor
T4 chain: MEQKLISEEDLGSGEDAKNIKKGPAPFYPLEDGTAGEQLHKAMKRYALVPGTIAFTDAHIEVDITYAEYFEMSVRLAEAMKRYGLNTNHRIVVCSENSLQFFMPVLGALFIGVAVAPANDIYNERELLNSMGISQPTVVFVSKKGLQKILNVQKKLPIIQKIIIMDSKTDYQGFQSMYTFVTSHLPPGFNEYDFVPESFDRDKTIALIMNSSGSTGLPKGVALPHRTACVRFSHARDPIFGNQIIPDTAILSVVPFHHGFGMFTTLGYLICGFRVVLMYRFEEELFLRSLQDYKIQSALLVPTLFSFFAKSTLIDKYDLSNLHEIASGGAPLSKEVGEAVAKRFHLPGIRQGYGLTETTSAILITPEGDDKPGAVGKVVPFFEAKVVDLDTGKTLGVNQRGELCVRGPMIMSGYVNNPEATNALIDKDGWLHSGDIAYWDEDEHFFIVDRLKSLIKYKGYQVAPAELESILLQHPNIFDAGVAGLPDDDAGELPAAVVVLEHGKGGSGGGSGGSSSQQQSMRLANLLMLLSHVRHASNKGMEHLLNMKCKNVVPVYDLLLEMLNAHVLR
The experiment in a line: split firefly luciferase complementation in HEK293T cells, ligand dose response (FIG. 2C).
Description: as §1, §2, §3

For test [5], the target named is T5, nLuc:cGR2.
T5 construct: Expressed in HEK293T cells from pcDNA3; also called Myc:gsg:nLuc:gs10:cGR2; cSplit of GR2 CISPA sensor
T5 chain: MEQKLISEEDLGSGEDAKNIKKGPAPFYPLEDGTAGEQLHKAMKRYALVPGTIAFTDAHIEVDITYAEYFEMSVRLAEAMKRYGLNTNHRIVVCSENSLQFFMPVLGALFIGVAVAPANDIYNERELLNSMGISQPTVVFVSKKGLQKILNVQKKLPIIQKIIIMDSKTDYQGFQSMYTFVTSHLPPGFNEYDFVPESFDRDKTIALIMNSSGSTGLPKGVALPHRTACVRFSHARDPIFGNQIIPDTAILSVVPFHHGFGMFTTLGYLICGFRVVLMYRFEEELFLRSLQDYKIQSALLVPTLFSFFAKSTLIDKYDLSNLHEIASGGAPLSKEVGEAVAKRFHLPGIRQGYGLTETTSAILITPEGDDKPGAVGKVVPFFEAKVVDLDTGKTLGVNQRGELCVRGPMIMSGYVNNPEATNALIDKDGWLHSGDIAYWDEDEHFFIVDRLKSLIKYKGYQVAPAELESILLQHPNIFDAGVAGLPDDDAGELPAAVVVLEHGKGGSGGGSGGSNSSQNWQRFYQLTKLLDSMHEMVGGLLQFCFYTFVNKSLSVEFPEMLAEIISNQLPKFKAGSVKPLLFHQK
Description: split firefly luciferase complementation in HEK293T cells; dimerization only with cognate ligand.
Description: as §1, §2, §3

Test [6] concerns the target T6, nLuc:cDHFR (human, UniProt P08659 2-491 = luciferase).
T6 construct: Expressed in HEK293T cells from pcDNA3; also called Myc:gsg:nLuc:gs10:cDHFR; cSplit of DHFR CISPA sensor
Description: split firefly luciferase complementation in HEK293T cells, methotrexate or pralatrexate dose response (FIG. 3B).
Description: as §4, §3
The plasmids encoding for CISPA sensor was transiently co-transfected into HEK293T cell line. […]

B1: nPPARγ:cLuc (other)
chain: MGSHMLNPESADLRALAKHLYDSYIKSFPLTKAKARAILTGKTTDKSPFVIYDMNSLMMGEDKIKFKHITPLQEQSKEVAIRIFQGCQFRSVEAVQEITEYAKSIPGFVNLDLNDQVTLLKYGVHEIIYTMLASLMNKDGVLISEGQGFMTREFLKSLRKPFGDFMEPKFEFAVKFNALELDDSDLAIFIAVIILSGDRPGLLNVKPIEDIQDNLLQALELQLKLNHPESSGGSGGGSGGSTMTEKEIVDYVASQVTTAKKLRGGVVFVDEVPKGLTGKLDARKIREILIKAKKGGKIAVNSGSGYPYDVPDYA
notes: Expressed in HEK293T cells from pcDNA3; also called nPPARγ:gs10:cLuc:gsg:HA; nSplit of PPARγ CISPA sensor
On to B1, for which the binding result in test [1] is “binds”.

B2: nLyn:cLuc (other)
chain: MAWEIPRESIKLVKRLGAGQFGEVWMGYYNGGSGGGSGGSTMTEKEIVDYVASQVTTAKKLRGGVVFVDEVPKGLTGKLDARKIREILIKAKKGGKIAVNSGSGYPYDVPDYA
notes: Expressed in HEK293T cells from pcDNA3; also called nLyn:gs10:cLuc:gsg:HA; nSplit of Lyn CISPA sensor
For the molecule B2, the binding result in test [2] is “binds”.

B3: nTRβ:cLuc (other)
chain: MHMEELQKSIGHKPEPTDEEWELIKTVTEAHVATNAQGSHWKQKRKFLPEDIGQAPIVNAPEGGKVDLEAFSHFTKIITPAITRVVDFAKKLPMFCELPCEDQIILLKGCCMEIMSLRAAVRYDPESETLTLNGEMAVTRGQLKNGGLGVVSDAIFDLGMSLSSFNLDDTEVALLQAVLLMSSDRPGLACVERIEKYQDSFLLAFEHYINYRKHGGSGGGSGGSTMTEKEIVDYVASQVTTAKKLRGGVVFVDEVPKGLTGKLDARKIREILIKAKKGGKIAVNSGSGYPYDVPDYA
notes: also called nTRβ:gs10:cLuc:gsg:HA; nSplit of TRβ CISPA sensor
On to B3, for which, in test [3], the binding result was “binds”.

B4: nERβ:cLuc (other)
chain: MDALSPEQLVLTLLEAEPPHVLISRPSAPFTEASMMMSLTKLADKELVHMISWAKKIPGFVELSLFDQVRLLESCWMEVLMMGLMWRSIDHPGKLIFAPDLVLDRDEGKCVEGILEIFDMLLATTSRFRELKLQHKEYLCVKAMILLNSSMYPLVTATQDADSSRKLAHLLNAVTDALVWVIAKSGIGGSGGGSGGSTMTEKEIVDYVASQVTTAKKLRGGVVFVDEVPKGLTGKLDARKIREILIKAKKGGKIAVNSGSGYPYDVPDYA
notes: Expressed in HEK293T cells from pcDNA3; also called nERβ:gs10:cLuc:gsg:HA; nSplit of ERβ CISPA sensor
Take B4: the binding result in test [4] is “binds”.

B5: nGR2:cLuc (other)
chain: MLISLLEVIEPEVLYSGYDSTLPDTSTRLMSTLNRLGGRQVVSAVKWAKALPGFRNLHLDDQMTLLQYSWMSLMAFSLGWRSYKQSNGNMLCFAPDLVINEERMQLPYMYDQCQQMLKISSEFVRLQVSYDEYLCMKVLLLLSTVPKDGLKSQAVFDEIRMTYIKELGKAIVKREGGGSGGGSGGSTMTEKEIVDYVASQVTTAKKLRGGVVFVDEVPKGLTGKLDARKIREILIKAKKGGKIAVNSGSGYPYDVPDYA
notes: Expressed in HEK293T cells from pcDNA3; also called nGR2:gs10:cLuc:gsg:HA; nSplit of GR2 CISPA sensor
With B5, in test [5], the binding result is “binds”.

B6: nDHFR:cLuc (other)
chain: MVGSLNCIVAVSQNMGIGKNGDLPWPPLRNEFRYFQRMTTTSSVEGKQNLVIMGKKTWFSIPEKNRPLKGRINLVLSRELKEPPQGAHFLSRSLDDALKLTEQPELANKVDMVWIVGGSSVYKEAMNHPGHLKLFVTRIMQDFESDTFFPEIDLEKYKLLPEYPGVLSDVQEEKGGSGGGSGGSTMTEKEIVDYVASQVTTAKKLRGGVVFVDEVPKGLTGKLDARKIREILIKAKKGGKIAVNSGSGYPYDVPDYA
notes: Expressed in HEK293T cells from pcDNA3; also called nDHFR:gs10:cLuc:gsg:HA; nSplit of DHFR CISPA sensor
Take B6: the binding result in test [6] was “binds”.
